Laboratory results: patent US20040138156A1, “Therapeutic regulation of deoxyribonuclease-1-like-3 activity” (priority 2002, published 2004)
“Also recorded” adds a separate entry of the source.

What was measured:
[1] = test system: D1L3; conditions: cited from earlier work
[2] = test system: HeLa cells; assay: BT assay: liposomal N1-eGFP transfection of HeLa cells in DNASE-conditioned media, GFP immunoblot; assay type: cell-based; conditions: for GFP fluorescence by fluorescent microscopy: 24 hours; for BT activity / GFP expression or transfection efficiency in cells exposed to undiluted conditioned media: FuGENE-6; for GFP transfection in ten-fold diluted conditioned media: ten-fold (five and ten fold) dilution of conditioned media
Description: In the main assay, an eukaryotic marker such as green fluorescent protein (GFP) expression plasmid complexed with a lipid reagent is transfected into HeLa cells incubated in control media, D1L3-conditioned media, or D1-conditioned media (FIG. 4). The assay is not limited to the use of GFP as a marker, but could use any of many expressed biomarkers encoded by nucleotides that can be assayed either immunochemistry, fluorescent detection, or enzymatic detectection, and these include but are not circumscribed to luciferase, chloramphenicol acetyl-transferase, antibiotic or chemical resistance genes, Beta-galactosidase, FLAG-, myc-hemaglutinnin-, or other epitope tagged molecules, as well as other markers of gene or nucleotide transduction. The endpoint of the assay is the detection of a synthesized protein, but could easily have been the detection of a transcribed gene product, since the assay ultimately measures the ability of D1L3 added the media/milieu overlaying the cells to block the ultimate association of an expressible plasmid with the transcriptional machinery.
(§1) Transfection Reagents and Resistance Assays. Lipofection of respective pcDNA3.1-D1 or -D3 ([…] purified with Promega Wizard Plus DNA system) was performed independently into 1-2 million HeLa cells, which produce a low background of secreted nuclease activity, when grown in DMEM with 10% FCS (LifeTech) in 6 well culture plates (Becton-Dickinson). […] Media of the transfected cells were conditioned for 36-48 hours and served as source of the respective enzymes. Nuclease activity in conditioned supernatant was measured by RDAs, zymograms and by testing activity against supercoiled pBluescript (Stratagene).
To test for the ability of the nucleases to block transfection, the media in individual wells of naive HeLa cells were replaced with conditioned media, and cells transfected with […] of N1-eGFP plasmid (Clontech) using various transfection reagents (FIG. 11) and their respective protocols. GFP expression by immunoblot directly correlated with transfection efficiency in present experiments. Thus, transfection efficiency was compared by densitometric analysis of GFP immunoblots.
GFP expression was also examined by fluorescent microscopy using a FITC filter. For microscopy, cells were fixed for 5 minutes in 4% paraformaldehyde dissolved into 1% PBS.
Antibody Reagents and Immunoblotting. After 24-36 hours, cells transfected with N1-eGFP were lysed in SDS-buffer and immunoblotted for expression with anti-GFP at 1:5000 dilution (Clontech). To confirm nearly equal protein loading per lane, anti-β-actin monoclonal antibody at 1:7,000 dilution (Sigma) were prepared. For immunoblots, […] protein was eletrophoretically separated by 12% SDS-PAGE gel, followed by electrotransfer to Immobilon-P membranes (Millipore) for expression studies. Immunoblotting was performed using ECL detection (Amersham).
Transfection efficiency was compared, wherever possible, by pixel densitometry of the scanned images using Scion Image 4.02 software.

[3] = test system: liposomal-bound plasmid; assay: Cell-free nuclease activity assay on free or FuGene-bound plasmid; assay type: biochemical; conditions: FuGene-bound plasmid, 37° C., 1 hour
Description: FIG. 16. […] Representative experiment (n=3) of exposure of […] free (−) or liposomal-bound (+FuGene) plasmid to control media with 10% fetal calf serum (lanes 1-2), D1 (lanes 3-4), D1L3 (lanes 5-6), D3DCT (lanes 7-8), and N196K-D3 (lanes 9-10).
Cell-Free Nuclease Activity Assay. Free plasmid DNA or plasmid complexed with lipofection reagent was incubated with conditioned at 37° C. for 1 hour. The incubation was terminated with […] EDTA, and DNA extracted using Promega Wizard DNA Purification System, eluted in […] water, and electrophoresed on a 1% agarose gel.

[4] = test system: free DNA; assay: Radial diffusion assay (RDA) of nuclease activity against free DNA in conditioned media; assay type: biochemical; conditions: for mean RDA activity of conditioned media: 24 hours, 37 degrees
Description: as §1
Nuclease Assays. Nuclease activity against “naked” or free DNA in CM was quantified by densitometry of RDAs. For assays of media by murine cells, RDAs were performed using conditioned media, after 36 hour incubation of equal numbers of target cell population. Each conditioned media was sampled in triplicate. RDAs for all four mice were performed on a single dish. For RDAs, 2-5 ul of conditioned supernatant was dotted on 100 mm dishes containing 2% agarose, 250 ug/ml DNA, 0.001% EtBr, 0.5% filtered milk, 10 mM Ca^+2/MgCl2; and 12.5 ug/ml kanamycin. Multiple observations were generated for every sample obtained. After 24 hours of 37° incubation, plates are photographed under UV transillumination; and scanned photos were analyzed with NIH image. For RDAs, the activity was quantified as the product of mean density and area (traced on image) of zones of clearing. For observations of serum/urine, 2-5 ul of serum were dotted on agarose plates.
Zymograms are in-gel renaturation assays performed by SDS-PAGE through a gel impregnated with 200 µg/ml DNA and ethidium bromide, eluting away SDS with repeated washes in 25 mM Tris-HCl pH 7.5, then incubating for 12-16 hours at 37° C. in 25 mM Tris-HCl pH 7.5 with 10 mM Ca^+2/Mg^+2 buffer. Activity is measured as dark “bands” of DNA digestion (Rosenthal et al., (1977) Anal. Biochem. 80, 76-90) and quantified using scanned images using NIH Image. Photographed RDA results were scanned 600 dpi Tiff images, and activity was measured as pixel area times density of traced zones of clearing (n=3 for each zone). Student's T-test was used to compare paired results. Nuclease activity ratios were obtained by comparing intra-plate results.

[5] = test system: Ad5.CMV-GFP; assay: Adenoviral gene transduction of HeLa cells in conditioned media, GFP immunoblot; assay type: cell-based, adenovirus serotype 5; conditions: lysed at 72 hours
Description: FIG. 30. D3-media confers an in vitro barrier to adenoviral gene transduction (BT). This figure provides anti-GFP immunoblots at 1:5000 (Clontech) of Ad.V.GFP infected (MO 100:1) of 100,000 HeLa cells. Infection of HeLa cells with Ad5.CMV-GFP (a 1st generation (DE1/DE3) adenovirus serotype 5 expressing GFP under the control of CMV-IE promoter (Qbiogene)) was performed in the presence of D1, D3, D1+D3CT, or control conditioned media. Infected cells were lysed at 72 hours and tested for GFP expression (n=3 expts). […] Thus DNASE1L3 or DNASE enzymes linked to the D3CT diminish adenoviral gene transfer. […] Actin levels were generally equivalent in infected cells.

[6] = media conditioned by transfected HeLa cells

Row | Molecule | effect on D1L3 DNASE activity [1] | GFP fluorescence by fluorescent microscopy [2] | BT activity / GFP expression or transfection efficiency in cells exposed to undiluted conditioned media ([2]; anti-GFP immunoblot) | state of liposome-bound plasmid after exposure to conditioned media [3] | mean RDA activity of conditioned media [4, 6] | GFP expression after Ad5.CMV-GFP infection / barrier to infection [5] | other results
1 | [Zn+2] [zinc] | block D1L3 DNASE activity | – | – | – | – | – | –
2 | O=C(O)CN(CCN(CC(=O)O)CC(=O)O)CC(=O)O [EDTA] | block D1L3 DNASE activity | – | – | – | – | – | –
3 | D1: Murine deoxyribonuclease 1, glycosylated, supplied as media conditioned by transfected HeLa cells (protein, UniProt P49183 23-284, looked up) Deoxyribonuclease-1: LRIAAFNIRTFGETKMSNATLSVYFVKILSRYDIAVIQEVRDSHLVAVGKLLDELNRDKPDTYRYVVSEPLGRKSYKEQYLFVYRPDQVSILDSYQYDDGCEPCGNDTFSREPAIVKFFSPYTEVQEFAIVPLHAAPTEAVSEIDALYDVYLDVWQKWGLEDIMFMGDFNAGCSYVTSSQWSSIRLRTSPIFQWLIPDSADTTVTSTHCAYDRIVVAGALLQAAVVPNSAVPFDFQAEYGLSNQLAEAISDHYPVEVTLRKI | – | abundant GFP | did not differ significantly from controls; also recorded: no significant decrease; also recorded: no effect | all remaining plasmid migrated in a nicked or linearized conformation | 28.2 Units | increased expression of GFP | mean ratio of GFP expression in exposed cells versus control ([2]; n=20 assays, anti-GFP immunoblot): 0.8 ± 0.2; RDA activity relative to D1L3 conditioned media ([4]; densitometry of RDAs, n=24 assays): ~2.7 fold; RDA nuclease activity of conditioned media (in words) [4, 6]: greater RDA activity than D3
4 | D1L3: Deoxyribonuclease 1-like 3; murine wild-type (C57BL, 89T) enzyme supplied as media conditioned by transfected HeLa cells (protein) LRLCSFNVRSFGASKKENHEAMDIIVKIIKRCDLILLMEIKDSSNNICPMLMEKLNGNSRRSTTYNYVISSRLGRNTYKEQYAFVYKEKLVSVKTKYHYHDYQDGDTDVFSREPFVVWFHSPFTAVKDFVIVPLHTTPETSVKEIDELVDVYTDVRSQWKTENFIFMGDFNAGCSYVPKKAWQNIRLRTDPKFVWLIGDQEDTTVKKSTSCAYDRIVLCGQEIVNSVVPRSSGVFDFQKAYDLSEEEALDVSDHFPVEFKLQSSRAFTNNRKSVSLKKRKKGNRS | – | absence of GFP fluorescence | No GFP expression; also recorded: effectively blocks transfection efficiency | mostly supercoiled plasmid is protected | 12.0 Units | afford a barrier to infection | BT effect of diluted conditioned media ([2]; diluted 100 fold with control media or 10-fold with N196K conditioned media): complete BT effect; GFP transduction after pre-incubation in conditioned media ([2]; naive cells incubated six hours, rinsed twice with PBS, transfected in control media): blocked; GFP transfection in ten-fold diluted conditioned media [2]: No GFP expression is clearly detectable; GFP transfection in ten-fold diluted conditioned media ([2]; listed as 89T): nearly completely blocks GFP transduction; also recorded: no GFP transfection efficiency; GFP transfection in ten-fold diluted conditioned media ([2]; listed as D3): No GFP expression is clearly detectable; BT activity / GFP expression or transfection efficiency in cells exposed to undiluted conditioned media ([2]; anti-GFP immunoblot, listed as 89T): saturated BT activity; BT activity / GFP expression or transfection efficiency in cells exposed to undiluted conditioned media ([2]; anti-GFP immunoblot, listed as D3): prevents GFP expression; also recorded: abolished; state of liposome-bound plasmid after exposure to conditioned media ([3]; listed as D1L3-CM): does not completely digest liposomal-bound DNA; GFP expression after Ad5.CMV-GFP infection / barrier to infection ([5]; listed as D3): prevents GFP expression
